This assay concerns the target SARS-CoV-2 spike protein on Ramos-S cells (SARS-CoV-2) (UniProt P0DTC2). Kind of assay: flow cytometry on cells. In general terms: Flow cytometry measures light scatter and fluorescence of single cells or particles in a stream.

Nine substances from paper PMC9369017 can be followed below.

As for “EflACE2-Fc-H429Y (from UniProt Q9BYF1 19-740) (Fc fusion)”, the median fluorescence intensity is 15100.
In the case of “flACE2-Fc-E430G (from UniProt Q9BYF1 19-740) (Fc fusion)”, the median fluorescence intensity is 17300.
“trACE2-Fc-H429Y (from UniProt Q9BYF1 19-615) (Fc fusion)” registered a median fluorescence intensity of 11600.
“EflACE2-Fc-E430G (from UniProt Q9BYF1 19-740) (Fc fusion)”: the median fluorescence intensity is 21000.
Under “flACE2-Fc-H429F (from UniProt Q9BYF1 19-740) (Fc fusion)” stands 16900; under “flACE2-Fc-H429Y (from UniProt Q9BYF1 19-740) (Fc fusion)”, 12500.
Take “EflACE2-Fc-H429F (from UniProt Q9BYF1 19-740) (Fc fusion)”: the median fluorescence intensity came to 20500.
To “trACE2-Fc-H429F (from UniProt Q9BYF1 19-615) (Fc fusion)” belongs 16300; to “trACE2-Fc-E430G (from UniProt Q9BYF1 19-615) (Fc fusion)”, 16700.
